The target in the test is Cyclosporine 29-56-14 combinatorial mutant clone R2-9 (scFv on yeast). In words: competition, flow cytometry on yeast; M17 0 to 5 uM against 0.5 nM bt-CsA; physiological or selection diluent.

This note sets out measurements from patent US20080176756A1.

Turning to cyclosporine A metabolite M17 (peptide), the fold increase of IC50 compared to WT CsA 29-56-14 fell in the range of 30 to 100 fold.
